Assay results published in PMC1361615.

Biological target: His-tagged M.RsrI (UniProt P14751 1-319)
Assay: size-exclusion chromatography

His-tagged M.RsrI, sequence (P14751 whole entry): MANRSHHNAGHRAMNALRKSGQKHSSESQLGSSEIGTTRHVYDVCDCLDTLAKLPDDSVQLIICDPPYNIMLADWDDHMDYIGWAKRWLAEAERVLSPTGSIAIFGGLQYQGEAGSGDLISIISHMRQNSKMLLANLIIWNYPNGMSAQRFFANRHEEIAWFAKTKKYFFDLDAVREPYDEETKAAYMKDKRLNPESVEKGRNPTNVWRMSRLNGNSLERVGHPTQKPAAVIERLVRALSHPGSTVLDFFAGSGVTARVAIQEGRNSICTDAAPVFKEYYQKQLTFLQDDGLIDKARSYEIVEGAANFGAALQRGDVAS

B1: 25 bp unmethylated duplex, gel filtration (dsDNA)
DNA 1: GGCAGACACGGAATTCCACAGACGG
DNA 2: CCGTCTGTGGAATTCCGTGTCTGCC
modifications: none
B1: binds.
